According to the supplement of paper PMC9732359:
± gives the uncertainty stated by the source.

Test: protein stability index of a GFP-peptide fusion (yeast GPS) (PSI 1-4); higher = more stable; sorted into four equal gates, so the index is relative within each strain
Procedure, shortened: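 Plasmids in a pooled yeast library fused tiled 17-residue yeast protein peptides downstream of GFP and also expressed Cherry. Mid-log cultures grown without leucine were sorted into four equal gates by GFP/Cherry fluorescence ratio. Each gate's plasmids were PCR-amplified and Illumina-sequenced, and reads were matched to strains by barcodes. The protein stability index is derived by multiplying each gate's read frequency by its gate number and summing the results.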

Sequence | protein stability index (doa10∆) | protein stability index (pdr5∆) | protein stability index (san1∆) | protein stability index (ubr1∆)
ILGIAGEDFAVLAGDTR [PRE7] | 3.65 ± 0.22 | 3.2 ± 0.23 | 3.32 ± 0.23 | 3.64 ± 0.076
ESKGNAFKHKRALVEHI [RPL19A] | 3.36 ± 0.087 | 3.38 ± 0.1 | 3.44 ± 0.047 | 3.29 ± 0.054
KLLGIGDIESLFEQLQT [SRP54] | 1.58 ± 0.062 | 2.15 ± 0.069 | 2.2 ± 0.13 | 2.67 ± 0.064
DNVSFIEEAKSIRRQDY [REC8] | 2.85 ± 0.12 | 3.06 ± 0.11 | 3.28 ± 0.09 | 3.15 ± 0.08
KKKKKGSNQKPKYEPPV [RPT2] | 2.94 ± 0.11 | 2.96 ± 0.12 | 2.38 ± 0.22 | 3.12 ± 0.076
GSGSRLNRLPAASLGDM [RPL23A] | 2.28 ± 0.17 | 2.6 ± 0.18 | 2.66 ± 0.24 | 3.12 ± 0.22
DYSKPNLPPHYALFLKA [SSN2] | 2.15 ± 0.07 | 2.03 ± 0.073 | 1.78 ± 0.11 | 1.99 ± 0.056
DDTKETVYISSIALLKM [RPN11] | 3.09 ± 0.087 | 2.77 ± 0.084 | 2.71 ± 0.048 | 2.93 ± 0.055
IPPDQQRLIFAGKQLED [RPS31] | 2.92 ± 0.077 | 2.73 ± 0.06 | 3.18 ± 0.038 | 3.16 ± 0.035
SSIDKKSSILTVLQKNS [YML103C/NUP188] | 1.79 ± 0.063 | 2.42 ± 0.083 | 2.4 ± 0.067 | 2.46 ± 0.058
SIIQSKQDCVDWFTYSY [BRR2] | 1.58 ± 0.037 | 1.78 ± 0.037 | 1.69 ± 0.085 | 1.97 ± 0.033
SHTGLVRKYDLNICRQC [RPS29B] | 2.18 ± 0.052 | 2.51 ± 0.068 | 1.94 ± 0.092 | 2.09 ± 0.088
DNIRYATALQTCAGGRL [SMC2] | 2.31 ± 0.086 | 3.02 ± 0.083 | 2.8 ± 0.11 | 1.62 ± 0.058
NLFGATANANKPAFSFG [YJL041W/NSP1] | 3.05 ± 0.096 | 3.18 ± 0.081 | 3.14 ± 0.074 | 3.12 ± 0.057
FGAKSDENKAGATSKPA [YJL041W/NSP1] | 3.25 ± 0.11 | 3.23 ± 0.1 | 3.44 ± 0.065 | 3.25 ± 0.086
DYRPAEETEAQAEPVEA [RPS3] | 2.93 ± 0.075 | 3.26 ± 0.065 | 3.14 ± 0.038 | 3.17 ± 0.052
DEKVTILVDSLTGNQLP [SWI1] | 2.76 ± 0.057 | 2.72 ± 0.064 | 2.9 ± 0.04 | 2.95 ± 0.046
ESAPITAEDSWAVISAF [RPB2] | 3.17 ± 0.08 | 2.99 ± 0.062 | 2.91 ± 0.051 | 2.99 ± 0.06
KTMIKTIEKDKMKIQET [SMC2] | 2.85 ± 0.17 | 1.86 ± 0.14 | 1.64 ± 0.12 | 2.04 ± 0.062
CSKAMGDLASLVLLNGR [RPP1] | 2.84 ± 0.061 | 2.9 ± 0.05 | 2.62 ± 0.058 | 2.73 ± 0.037
TMANILYYPQKPLGTTR [RPB2] | 1.77 ± 0.057 | 2.47 ± 0.095 | 2.27 ± 0.074 | 1.45 ± 0.04
KKNPNWLEEYHPKLIKN [FAS1] | 2.05 ± 0.087 | 1.94 ± 0.061 | 1.97 ± 0.084 | 2.14 ± 0.046
WHIEETGEWFSSYEEFL [ITC1] | 2.31 ± 0.072 | 2.63 ± 0.077 | 2.59 ± 0.066 | 2.53 ± 0.063
VDLTSSNFADSADYEIL [YDL116W/NUP84] | 2.84 ± 0.087 | 3.12 ± 0.098 | 3.31 ± 0.093 | 3.29 ± 0.09
SDDQQEAVELVIGLDSE [YML103C/NUP188] | 2.9 ± 0.17 | 3.54 ± 0.12 | 3.39 ± 0.12 | 3.38 ± 0.045
TTYTYQQPNPLQDLISV [ROX3] | 1.67 ± 0.059 | 1.81 ± 0.069 | 1.7 ± 0.11 | 2.08 ± 0.1

Sequence | protein stability index (doa10∆) | protein stability index (pdr5∆) | protein stability index (san1∆) | protein stability index (ubr1∆)
GSGKSNMMDAISFVLGV [SMC1] | 3.18 ± 0.073 | 3.17 ± 0.074 | 3.24 ± 0.058 | 3.32 ± 0.043
IESQMRDLILTEYGRKY [PRP8] | 2.2 ± 0.1 | 2.04 ± 0.073 | 1.98 ± 0.098 | 3.03 ± 0.092
WGEQKKAMSSRAGVSQV [RPB2] | 3.27 ± 0.12 | 3.17 ± 0.099 | 3.25 ± 0.071 | 3.32 ± 0.05
NTAPGLGNTVSTQPSFA [YGR119C/NUP57] | 3.04 ± 0.11 | 2.96 ± 0.079 | 2.9 ± 0.098 | 3.04 ± 0.056
SKKGKPTVNKKPKNKKK [SRP72] | 2.73 ± 0.15 | 2.68 ± 0.11 | 2.45 ± 0.12 | 2.9 ± 0.098
RKRVYNIKFLSKLEGTI [ESC2] | – | 3.51 ± 0.2 | – | 3.21 ± 0.16
GHLPEVSSKCNDIHLRF [ECM29] | 2.69 ± 0.11 | 2.92 ± 0.082 | – | 3.17 ± 0.17
KDVLAQTSVTTNFNEIT [SWP82] | 2.3 ± 0.079 | 2.75 ± 0.06 | 2.7 ± 0.071 | 2.76 ± 0.045
LMLGSVNLPGGILRRKS [RRP4] | 1.96 ± 0.058 | 1.46 ± 0.11 | 1.54 ± 0.14 | 1.4 ± 0.047
YITLKATFLKDDLPYYV [QCR2] | 2.42 ± 0.047 | 2.17 ± 0.049 | 2.51 ± 0.054 | 2.44 ± 0.039
TKKKRKPTEVNDSENNS [ITC1] | 3.26 ± 0.063 | 3.21 ± 0.081 | 3.16 ± 0.045 | 3.27 ± 0.054
AISGKKTTYYYYNEEGI [RPC82] | 2.61 ± 0.067 | 2.97 ± 0.14 | 2.8 ± 0.056 | 3.06 ± 0.076
FVKFLSKKGSLENNIRE [RPL10] | 3.32 ± 0.18 | 3.32 ± 0.16 | 3.11 ± 0.076 | 3.3 ± 0.057
ATDEESVRLQRFYQLGV [CSN12] | 3.13 ± 0.16 | 3.13 ± 0.15 | 2.92 ± 0.11 | 3.13 ± 0.099
ISRNGDTSYKIDGKTVS [SMC1] | 2.72 ± 0.14 | 3.01 ± 0.074 | 2.9 ± 0.064 | 3.29 ± 0.081
VVGQLFQIDNDNIRYAT [SMC2] | 2.67 ± 0.067 | 2.67 ± 0.066 | 2.65 ± 0.065 | 2.88 ± 0.078
RDVYVFDKVEVQVRSVM [DIS3] | 2.92 ± 0.067 | 3 ± 0.068 | 3.33 ± 0.052 | 3.24 ± 0.071
QGVYGAVYETLISRMIF [BRR2] | 2.46 ± 0.11 | 1.81 ± 0.093 | 1.36 ± 0.15 | 1.67 ± 0.045
FPQYKLTTFANQVMMDR [ARP7] | 2.6 ± 0.096 | 2.19 ± 0.071 | 2.03 ± 0.13 | 2.4 ± 0.06
AHVFVGTCNGDITTSIM [RPN1] | 2.72 ± 0.048 | 2.78 ± 0.044 | 2.63 ± 0.047 | 2.62 ± 0.053
GSKKGQEGKISSVYRLK [RPL26A] | 3.15 ± 0.11 | 2.94 ± 0.096 | 2.7 ± 0.086 | 3.33 ± 0.11
DKDVKAKYETSILEHSG [FAS2] | 3.36 ± 0.058 | 3.33 ± 0.065 | 3.23 ± 0.052 | 3.37 ± 0.064
KFNNTQRESQIGAAELN [SNF12] | 3.01 ± 0.097 | 3.03 ± 0.14 | 2.87 ± 0.057 | 3.38 ± 0.09
VGKLFRVGVVSILEAGD [RPL30] | 1.99 ± 0.097 | 1.36 ± 0.093 | 1.58 ± 0.17 | 1.67 ± 0.081
VEYVDPTVNRVPNYEVS [RPN7] | 3.37 ± 0.26 | 3.2 ± 0.16 | 2.92 ± 0.25 | 3.8 ± 0.15
EIDPLTGMPISNDPDVN [BRN1] | – | – | 2.87 ± 0.13 | 3.03 ± 0.085
